This is an account of results in US20250027955A1, “ETHYLENE RECEPTORS AND BINDING DOMAINS WITH MODIFIED BINDING KINETICS FOR ETHYLENE” (Trustees of Dartmouth College, priority 2022, published 2025).

Substitutions are numbered along the chain they refer to. In names and notes the source's numbering stands.

One assay addresses ETR1 (Arabidopsis thaliana, UniProt P49333). To be noted: read-out: calculated dissociation constant (Kd); ethylene binding to ETR1; cited from earlier work.
The subject of another assay is plants. The following applies: in vivo; cited from earlier work.
Assay [1] concerns Arabidopsis seedlings, etr1 etr2 ein4 ers1 ers2 background. Description: Ethylene and 1-MCP response of ETR1^D25N lines lacking all five native ethylene receptors. To be noted: 1 μM ethylene. It counts as in vivo.
A short description of assay [2]: Copper binding assay: purified ETR1 transmembrane domain titrated to BCA2-Cu(I) complex, absorbance at 562 nm. The following applies: ETR1-TMD expressed and purified from E. coli; Cu(I) stabilized by BCA. From the text:
Cu(I) was stabilized by the copper chelator BCA, and then titrated with increasing ETR1 protein concentration.
Titration curves were corrected for nonspecific binding observed with chemically and thermally denatured receptor to maximize signal to background levels.

A short description of assay [3]: Saturable [14C]ethylene binding to yeast transgenically expressing ETR1. Details: species or system Saccharomyces cerevisiae. To be noted: for saturable [14C]ethylene binding: 0.21 μL L^−1 [14C]ethylene, with or without excess [12C]ethylene. The text has this: Saturable ethylene binding of the ETR1 Asp25 mutants was examined by heterologous expression in yeast, with binding to [^14C]ethylene determined in the presence or absence of excess [^12C]ethylene (FIG. 2C). […] This included the ETR1^D25A mutant, consistent with previous observations, as well as for the ETR1^D25N and ETR1^D25Q mutants (FIG. 2C). Results from the ethylene binding assay are therefore consistent with the negative charge at D25 playing a significant role in mediating high-affinity ethylene binding.
[^14C]ethylene (specific activity=116 mCi/mmol) was obtained from ViTrax Radiochemicals (Placentia, CA) and trapped as the mercuric perchlorate complex as described. For ethylene binding assays in yeast, ETR1 was expressed in the yeast Saccharomyces cerevisiae (strain FY834) using the vector pYcDE-2 and a constitutive ADC1 promoter. The yeast growth media was supplemented with 40 μg L^−1 copper sulfate. Saturable ethylene binding to yeast was determined by analyzing binding of 0.3 g yeast per sample to 0.21 μL L^−1 [^14C]ethylene, in the presence or absence of excess [^12C]ethylene.

Assay [4] concerns Arabidopsis seedlings, etr1 etr2 ein4 background. Description: Triple-response hypocotyl growth assay of dark-grown seedlings expressing ETR1 transgenes. It counts as in vivo. To be noted: for rescue of growth of etr1 etr2 ein4 triple mutant in air: absence of ethylene, hypocotyl and adult shoot growth. As for the experimental part:
Functionality of the ETR1 Asp25 mutants was tested by transgenic expression in the etr1 etr2 ein4 Arabidopsis background.
Applicant can thus exploit the triple mutant to assess the ability of the ETR1 transgenes to rescue growth in the absence of ethylene as well as their ability to mediate a response to ethylene. Such an analysis indicates whether the encoded receptors are able to assume the ‘on’ conformation that represses the ethylene response in air, as well as the ‘off’ conformation that occurs in response to ethylene binding.
(§1) All Arabidopsis lines were of the Columbia (Col-0) accession. The etr1-1 and etr1-6 etr2-3 ein4-4 mutant lines have been described. Analysis of the triple response of dark-grown Arabidopsis seedlings to ethylene was performed as described previously. Briefly, seedlings were grown at 22° C. on vertically oriented plates on half-strength Murashige and Skoog basal medium with Gamborg's vitamins (pH 5.75; Sigma), 0.8% (w/v) agar, and 5 μM aminoethoxyvinylglycine (AVG) to inhibit ethylene biosynthesis. The stratified seed was exposed to light for 8 hr and then moved to the dark in the presence or absence of ethylene, with analysis of the seedling growth being performed following 4 days total growth. For short-term kinetic analysis of dark-grown seedlings, time-lapse imaging and growth rate analysis of hypocotyls were carried out as described previously.

Assay [5] has the same test system. Nature of the assay: Short-term kinetic analysis of hypocotyl growth response to ethylene. It counts as in vivo. The following applies: for short-term hypocotyl growth response to ethylene: 10 μL/L ethylene for 2 hr; for growth recovery upon ethylene removal: after 2 hr of 10 μL/L ethylene, 5-hr recovery in air. As for the experimental part:
Based on the differences Applicant uncovered for the long-term ethylene growth responses for the Asp25 mutants, Applicant also analyzed their short-term hypocotyl growth and molecular responses to ethylene. To this end, Applicant performed a short-term kinetic analysis, analyzing the initial hypocotyl growth inhibition in response to 10 μL/L ethylene and the growth recovery following the removal of ethylene after two hours of treatment (FIG. 6A).
as §1

The test system of assay [6] is OSR1, ERF1, EXP5 and EXPb1 expression. Nature of the assay: Ethylene-dependent gene expression by RT-qPCR. It counts as in vivo, Arabidopsis. To be noted: 0 or 1 μL L^−1 ethylene for 2 hr. As for the experimental part:
To examine the short-term molecular response, Applicant characterized ethylene-dependent gene expression for the ETR1 Asp25 mutants (FIG. 6B). Expression of OSR1 and ERF1 is induced, whereas the expression of EXP5 and EXPb1 is repressed, in response to ethylene.
RNA isolation and RT-qPCR was performed with three biological replicates and two technical replicates of each.

The nature of assay [7]: Saturable [14C]ethylene binding of Arabidopsis seedlings (in planta). To be noted: two-week-old green seedlings, 0.31 μL L^−1 [14C]ethylene, 5 μM AVG. As for the experimental part: [^14C]ethylene binding was examined in two-week-old green seedlings grown on media containing 5 μM aminoethoxyvinylglycine (AVG) to inhibit ethylene biosynthesis.
For ethylene binding assays with Arabidopsis seedlings, two-week-old green seedlings were used that had been grown on media containing 5 μl M AVG to inhibit ethylene biosynthesis, with ˜1 g seedlings per sample. The fresh weight of seedlings was determined, and each sample packaged into bags formed from a layer of cheese cloth and stapled at the top. Humidity was maintained in the ethylene binding chambers by use of moistened paper towels. Saturable ethylene binding was determined by analyzing binding to 0.31 μL L^−1 [^14C]ethylene, in the presence or absence of excess [^12C]ethylene.

The subject of assay [8] is dark-grown Arabidopsis seedlings. Nature of the assay: Silver sensitivity assay: effect of silver on ethylene response of dark-grown seedlings. It is filed as in vivo. To be noted: transgene in etr1 etr2 ein4 background, 10 μL/L ethylene. The text has this:
As an initial test for the feasibility of the first hypothesis, Applicant asked if ETR1^D25N could still bind a metal cofactor, and therefore potentially ethylene, in planta. For this purpose, Applicant examined the effects of silver (Ag) on ethylene sensitivity. Silver is thought to substitute for the copper cofactor and, although receptors containing silver can still bind ethylene, they no longer transmit the signal, resulting in ethylene insensitivity.

The conditions of assay [9]: previously reported; cited from earlier work.
The conditions of assay [10]: previously reported; cited from earlier work. The source holds these as a separate data set.
For assay [11], the system named is Arabidopsis seedlings, etr1 etr2 ein4 background. The following applies: previously reported; cited from earlier work.

Sequence of ETR1 (P49333 whole entry): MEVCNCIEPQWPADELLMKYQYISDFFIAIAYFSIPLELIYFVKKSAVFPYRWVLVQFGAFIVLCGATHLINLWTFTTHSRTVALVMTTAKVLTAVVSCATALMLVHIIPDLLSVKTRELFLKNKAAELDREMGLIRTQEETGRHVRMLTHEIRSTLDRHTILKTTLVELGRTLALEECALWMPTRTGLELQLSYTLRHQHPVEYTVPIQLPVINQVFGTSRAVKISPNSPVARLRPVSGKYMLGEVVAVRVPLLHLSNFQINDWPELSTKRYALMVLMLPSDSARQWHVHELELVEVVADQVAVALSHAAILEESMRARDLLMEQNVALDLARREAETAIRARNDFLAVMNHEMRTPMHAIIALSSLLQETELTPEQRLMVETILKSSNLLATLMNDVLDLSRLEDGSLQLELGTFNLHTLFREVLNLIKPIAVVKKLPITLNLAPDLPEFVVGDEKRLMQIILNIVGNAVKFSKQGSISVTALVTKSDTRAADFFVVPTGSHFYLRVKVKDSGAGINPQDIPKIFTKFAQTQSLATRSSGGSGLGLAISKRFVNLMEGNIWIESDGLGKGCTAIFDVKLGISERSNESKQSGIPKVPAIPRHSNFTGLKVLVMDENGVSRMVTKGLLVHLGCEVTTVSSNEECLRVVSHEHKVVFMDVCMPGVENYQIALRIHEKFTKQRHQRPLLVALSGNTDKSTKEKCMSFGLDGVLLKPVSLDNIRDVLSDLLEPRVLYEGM

Take `C=C` [Ethylene, ethylene]: at ETR1, the Kd is 2.4 nM. In the assay on plants, the “ethylene concentration plants respond to (as low as)” value was 0.2 nL L^−1.

On to `CC1=CC1` [1-methylcyclopropene, reference compound], for which the “effect of 1-MCP on ethylene response” value in assay [1] (ETR1^D25N (etr1 etr2 ein4 ers1 ers2) lines, 1 μM 1-MCP) is “blocked”.

Regarding “ETR1^wt: wild-type ethylene receptor ETR1 of Arabidopsis”, the copper binding entry in [2] was “copper binding”. For the same molecule, the “saturable [14C]ethylene binding” value in [3] is “Saturable binding”. Moreover, the “rescue of growth of etr1 etr2 ein4 triple mutant in air” value in [4] is listed as “rescued growth”. Moreover, in [5], the “short-term hypocotyl growth response to ethylene” value is given as “rapid growth response to ethylene”; the “growth recovery upon ethylene removal” value is “growth recovery intermediate between that exhibited by the wild-type and the etr1 etr2 ein4 seedlings”. Besides, the “molecular response to ethylene (ethylene-dependent gene expression)” value in assay [6] is on record as “consistent with what is observed in the wild-type control”. Further, the “ethylene binding in planta versus etr1 etr2 ein4 basal level” value in [7] is recorded as “significant increase in ethylene binding”. Besides, in assay [8], the “ability of silver to block the ethylene response in transgene lines” value is on record as “restores the ability of silver to block the ethylene response”.

B1: etr1-1: well-characterized ETR1 missense mutation Cys65Tyr; ethylene-insensitive control (protein, UniProt P49333 1-738, looked up, variant C65Y)
Ethylene receptor 1: MEVCNCIEPQWPADELLMKYQYISDFFIAIAYFSIPLELIYFVKKSAVFPYRWVLVQFGAFIVLYGATHLINLWTFTTHSRTVALVMTTAKVLTAVVSCATALMLVHIIPDLLSVKTRELFLKNKAAELDREMGLIRTQEETGRHVRMLTHEIRSTLDRHTILKTTLVELGRTLALEECALWMPTRTGLELQLSYTLRHQHPVEYTVPIQLPVINQVFGTSRAVKISPNSPVARLRPVSGKYMLGEVVAVRVPLLHLSNFQINDWPELSTKRYALMVLMLPSDSARQWHVHELELVEVVADQVAVALSHAAILEESMRARDLLMEQNVALDLARREAETAIRARNDFLAVMNHEMRTPMHAIIALSSLLQETELTPEQRLMVETILKSSNLLATLMNDVLDLSRLEDGSLQLELGTFNLHTLFREVLNLIKPIAVVKKLPITLNLAPDLPEFVVGDEKRLMQIILNIVGNAVKFSKQGSISVTALVTKSDTRAADFFVVPTGSHFYLRVKVKDSGAGINPQDIPKIFTKFAQTQSLATRSSGGSGLGLAISKRFVNLMEGNIWIESDGLGKGCTAIFDVKLGISERSNESKQSGIPKVPAIPRHSNFTGLKVLVMDENGVSRMVTKGLLVHLGCEVTTVSSNEECLRVVSHEHKVVFMDVCMPGVENYQIALRIHEKFTKQRHQRPLLVALSGNTDKSTKEKCMSFGLDGVLLKPVSLDNIRDVLSDLLEPRVLYEGM
With B1, the “copper cofactor binding (previous studies)” value in assay [9] is reported as “no longer binds the copper cofactor”. In addition, the “ethylene binding (previous studies)” value in assay [10] is recorded as “no longer binds ethylene”. Moreover, the “ethylene sensitivity of plants (previous studies)” value in [11] is on record as “confers dominant ethylene insensitivity”.

B2: ETR1^D25N: ETR1 with site-directed mutation Asp25Asn, carboxylic acid changed to carboxamide (protein, UniProt P49333 1-738, looked up, variant D25N)
Ethylene receptor 1: B1 Ethylene receptor 1 with D25N, Y65C
For the molecule B2, the copper binding entry in assay [2] is “minimal residual binding”. For the same molecule, the “saturable [14C]ethylene binding” value in assay [3] is “No saturable [^14C]ethylene binding was detected”. For the same molecule, the koff increase entry in [3] (relative to ETR1^wt, suggested by inability to detect [14C]ethylene binding) is on record as “at least 100 fold”. The “rescue of growth of etr1 etr2 ein4 triple mutant in air” value in assay [4] is reported as “rescued growth”. The “hypocotyl growth response to ethylene” value in assay [4] (dark-grown seedlings, 0 or 1 μL L^−1 ethylene) is listed as “rescued the hypocotyl growth response to ethylene to the same degree as ETR1^wt”. Also, in assay [5], the “short-term hypocotyl growth response to ethylene” value is given as “rapid growth response to ethylene”; the “growth recovery upon ethylene removal” value is “growth recovery intermediate between that exhibited by the wild-type and the etr1 etr2 ein4 seedlings”. In addition, the “molecular response to ethylene (ethylene-dependent gene expression)” value in [6] was “consistent with what is observed in the wild-type control”. The “ethylene binding in planta versus etr1 etr2 ein4 basal level” value in [7] is “no increase in ethylene binding”. Further, the “ability of silver to block the ethylene response in transgene lines” value in assay [8] was “restores the ability of silver to block the ethylene response”. For the same molecule, in assay [1] (etr1 etr2 ein4 ers1 ers2 lines #11 and #15), the “response to ethylene without other native receptors” value was “still responded to ethylene”.
